According to the supplement of paper PMC10598134:
± gives the standard deviation.

Assay: collision cross section of unmodified peptide (TIMS, N2, iRT-aligned); higher = larger / more extended gas-phase ion
Method: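 Unmodified synthetic counterpart peptides (ProteomeTools / JPT), analysed by nanoLC-TIMS-QTOF (dda-PASEF). 1/K0 was aligned run-wise to spiked iRT peptides and converted to CCS in N2 (Mason-Schamp). Values are the mean of 1-3 technical replicates for the most abundant feature at each charge state. The same unmodified peptide is repeated across rows and is averaged.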

| Substance | collision cross section (charge state: 2) [Å²] | collision cross section (charge state: 3) [Å²] |
| --- | --- | --- |
| VGYPGPSGPLGARGIPGIK | 447.51 ± 0.68 | 562.22 ± 0.35 |
| GERGVPGER | 324.16 ± 0.79 | 410.66 ± 1.3 |
| IVEKYGYTHLSAGELLR | 489.48 ± 3 | 538.24 ± 2.8 |
| LVFDEYLK | 354.45 ± 0.59 | – |
| VRLQTTLR | 347.32 ± 0.41 | 442.81 ± 6.5 |
| FGTINIVHPKLGSYTK | 468.97 ± 3 | 531.6 ± 4.8 |
| GGPGAPGAPGPK | 323.76 ± 0.58 | – |
| DYSSGFGGKYGVQADR | 432 ± 2.6 | 489.69 ± 5.9 |
| DDIIENAPTTHTEEYSGEEK | – | 551.19 ± 0.23 |
| VDGDTQTTVEK | 367.05 ± 2.3 | – |
| DKALPLEAEVAPVK | 407.43 ± 3.2 | 507.63 ± 4.6 |
| GEPGQGLRGLQGPPGK | 417.18 ± 1.2 | 443.35 ± 0.85 |
| ASDTSSETVFGKR | 399.16 ± 2.1 | 477.62 ± 3.6 |
| VYSGHQGR | 325.3 ± 0.79 | 409 ± 1.1 |
| GLPGEPGPRGLLGPK | 406.63 ± 0.39 | 459.1 ± 1.2 |
| VNVEAPDVNLEGLGGKLK | 454.51 ± 2.9 | 537.97 ± 2.9 |
| GSLEKGSPEDK | 350.53 ± 1.5 | 434.36 ± 3.6 |
| PSVSTKLISK | 360.6 ± 1.3 | 423.25 ± 3.8 |
| SKLLFSNTAAQK | 393.75 ± 6 | 444.64 ± 5 |
| TLHLSHLNRFPAR | – | 511.92 ± 1.2 |
| GGNFGGRGGYGGGGGGSR | 404.35 ± 1.4 | 464.41 ± 2.6 |
| ALASIDSKLNQAK | 410.25 ± 2 | 481.52 ± 3.4 |
| SEASSEFAKK | 351.87 ± 0.55 | 422.04 ± 3.9 |
| ASNAAVKLAESK | 381.6 ± 0.7 | 452.24 ± 3.2 |
| GEQGEPGAPGIR | 347.53 ± 0.79 | – |
| DSLGVSFPEELACK | 418.18 ± 0.66 | – |

| Substance | collision cross section (charge state: 2) [Å²] | collision cross section (charge state: 3) [Å²] |
| --- | --- | --- |
| LSQEDPDYGIR | 376.56 ± 0.14 | – |
| IDLPAENSNSETIIITGKR | 488.02 | 565.88 ± 0.52 |
| HGVYNPNK | 330.7 ± 0.79 | – |
| DYSVTANSK | 329.32 ± 0.58 | – |
| ITGKNQVTATK | 365.6 ± 0.91 | 448.51 ± 5 |
| HVSPVTPPR | 327.76 ± 0.64 | – |
| TSAVSSQANSQPPVQVSVK | 457.25 ± 1.5 | 542.62 ± 0.28 |
| VEELEGEITTLNHK | 424.1 ± 0.66 | 513.8 ± 3.5 |
| GITGKPGPK | 312.13 ± 0.57 | – |
| GGGDRGGFGPGK | 338.46 ± 2.1 | 414.71 ± 5.6 |
| VFIGNLNTLVVKK | 421.66 ± 1.2 | 475.82 ± 2 |
| FGRGTGLTQPSQR | 395.55 ± 1.4 | 470.69 ± 2.1 |
| THLGEALAPLSK | 380.02 ± 0.67 | 462.22 ± 1 |
| VFLDCCNYITELR | 421.63 ± 0.67 | – |
| DLEEAEEYK | 358.42 ± 0.55 | – |
| LSFGLEDEPLETATK | 426.44 ± 0.65 | 496.99 ± 0.21 |
| TSAYGPPTR | 322.86 ± 1.6 | – |
| YHEDIFGLTLR | 388.91 ± 0.75 | 462.33 ± 2 |
| LDYSDFQIVK | 368.99 ± 0.6 | – |
| GPKGQQGEPGPK | 356.26 ± 0.79 | 451.77 ± 0.63 |
| FPGVGVLPGVPTGAGVKPK | 467.47 ± 1.8 | 560.63 ± 0.35 |
| DTPTSAGPNSFNKGK | 410.87 ± 2 | 465.77 ± 5.4 |
| LRQQLQAK | 346.98 ± 0.88 | 414.5 ± 11 |
| AGQKLIDVNHYAK | 420.25 ± 2.7 | 474.66 ± 4.5 |
| GEVQVSDKER | 363.87 ± 0.37 | 439.27 ± 4.5 |
| PSIHGGSGGRGVSVSSAR | – | 503.12 ± 0.69 |

| Substance | collision cross section (charge state: 2) [Å²] | collision cross section (charge state: 3) [Å²] |
| --- | --- | --- |
| GEKGDPGLIGPK | 373.44 ± 1.5 | 449.05 ± 1.4 |
| LSITGTYDLK | 371.61 ± 0.6 | – |
| LGNTISSLFGGGTTPDAK | 447.17 ± 0.13 | – |
| LSESHPDATEDLQR | – | 474.77 ± 1.7 |
| VFSIISSEKELK | 413.02 ± 1.5 | 485.92 ± 5.3 |
| APVGSVVSVPSQSSASSDK | 452.28 ± 0.77 | – |
| STGLELETPSLVPVKK | 457.57 ± 5.2 | 520.54 ± 2.5 |
| GRGYFEHR | 340.02 ± 0.52 | 409.47 ± 5.3 |
| TSSEASVSSSVAK | 370.17 ± 0.67 | – |
| SRGGGGNFGPGPGSNFR | – | 460.96 ± 1.4 |
| AAHGRGALAEAAR | 390.08 ± 0.35 | 476.13 ± 1.3 |
| VQFAPEK | 317.04 ± 1.1 | – |
| GNDISSGTVLSDYVGSGPPK | 464.77 ± 1 | – |
| SLYASSPGGVYATR | 405.12 ± 0.66 | 482.72 ± 0.22 |
| LEKDYQPGITFIVVQK | 447.32 ± 0.59 | 488.88 ± 0.86 |
| SGRGGNFGFGDSR | 375.82 ± 0.59 | 452.15 ± 2.9 |
| LAEEENKAK | 348.48 ± 1.2 | 421.19 ± 4.7 |
| YEEIVKEVSTYIK | 443.47 ± 2.8 | 492.72 ± 2.3 |
| AIQLNPSYIR | 373.91 ± 2.8 | – |
| DYQPGITFIVVQKR | 447.74 ± 2 | 520.02 ± 0.34 |
| PGPRGQR | 296.23 ± 0.53 | – |
| GSGLGARGSSYGVTSTESYK | 471.67 | 515.78 ± 1.1 |
| SLGEPAAGEGSAKR | 397.19 ± 1.1 | 478.87 ± 5.9 |
| IHNAENIQPGEQKYEYK | 475.76 ± 2.4 | 534.89 ± 9.6 |
| GFLQPPPLRQPR | 397.31 ± 0.59 | 451.27 ± 5.3 |
| FRSGNYR | 328.09 ± 0.7 | 402.54 ± 6.1 |

| Substance | collision cross section (charge state: 2) [Å²] | collision cross section (charge state: 3) [Å²] |
| --- | --- | --- |
| GEGGFGGRGGGR | 340.19 ± 0.38 | 426.14 ± 4 |
| ALYETELADAR | 385.99 ± 0.47 | – |
| FYTEDSPGLK | 352.82 ± 0.55 | – |
| LQNSYQPTNK | 358.91 ± 0.48 | – |
| PGGLGSSSLYGLGASRPR | 472.2 ± 0.073 | 533.78 ± 0.86 |
| DSRGGGGNFGPGPGSNFR | – | 474.13 ± 0.75 |
| SDSGKPYYYNSQTK | 416.14 ± 3 | 478.86 ± 16 |
| AYDATHLVK | 353.02 ± 0.48 | 420.22 ± 1.4 |
| VETTVTSLKTK | 379.41 ± 0.92 | 459.8 ± 3.1 |
| LDLSSLAYSGK | 363.06 ± 1.2 | – |
| FDDTNPEKEEAK | 396.22 ± 1.8 | 501.37 ± 2.2 |
| SPASDTYIVFGEAK | 403.4 ± 0.16 | 478.14 ± 0.9 |
| LLIVSTTPYSEKDTK | 459.72 ± 2.9 | 510.79 ± 5.4 |
| TEVLSPNSKVESK | 418.58 ± 2.2 | 483.46 ± 5.8 |
| VGLQVVAVKAPGFGDNR | 462.44 ± 2.5 | 487.54 ± 2.5 |
| SYGIPYIETSAK | 384.66 ± 0.47 | – |
| LQDVSGQLSSSKK | 403.09 ± 1.5 | 463.47 ± 6.3 |
| HHAAYVNNLNVTEEK | 444.13 ± 2.1 | 494.31 ± 0.87 |
| LGHYATQLQK | 363.47 ± 0.14 | 429.28 ± 0.3 |
| GQDSTIAASEQQVAAR | 416.79 ± 0.66 | 495.1 ± 0.23 |
| TGPPGSTGSRGPPGPPGR | – | 459.15 ± 0.33 |
| SVSSSSYR | 308.48 ± 0.73 | – |
| RFGGPVHHQAQR | 386.03 ± 0.46 | 495.72 ± 1.2 |
| GDKGDAGEPGR | 331.44 ± 0.79 | 419.58 ± 2 |
| GPPGPPGRPGNSGIR | – | 436.52 ± 1.7 |
| LQLGTPPPLLAARLVPPR | – | 572.92 ± 0.68 |
